T1: recombinant mouse ephrin B1-Fc (R & D) (mouse, UniProt P52795 30-229)
T1 construct: Bought protein (R & D); also called EB1; not shown: Fc part of the bought fusion protein is not described
T1 sequence (looked up): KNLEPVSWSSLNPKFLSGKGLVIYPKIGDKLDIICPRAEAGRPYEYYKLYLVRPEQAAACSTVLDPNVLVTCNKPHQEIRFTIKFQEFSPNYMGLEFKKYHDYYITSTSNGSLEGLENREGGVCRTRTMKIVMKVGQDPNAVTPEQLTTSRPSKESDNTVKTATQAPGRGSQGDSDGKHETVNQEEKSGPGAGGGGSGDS

T2: recombinant human ephrin B3-Fc (R & D) (human, UniProt Q15768 28-224)
T2 construct: Bought protein (R & D); also called EB3; not shown: Fc part of the bought fusion protein is not described
T2 sequence (looked up): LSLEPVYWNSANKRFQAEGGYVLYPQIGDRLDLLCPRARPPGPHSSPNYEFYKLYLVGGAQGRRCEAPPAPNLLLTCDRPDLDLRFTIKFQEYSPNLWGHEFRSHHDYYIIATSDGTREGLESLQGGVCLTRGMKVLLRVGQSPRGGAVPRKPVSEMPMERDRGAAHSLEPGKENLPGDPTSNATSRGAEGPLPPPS


How the values were obtained:
[1] = biological target: T1, recombinant mouse ephrin B1-Fc (R & D); assay: immunoblot; periplasmic fraction of the scFv, detected with anti c-Myc and anti-mouse peroxidase conjugate
Protocol: (§1) Recombinant mouse proteins ephrin B1-Fc, mouse ephrin B2-Fc and human ephrin B3-Fc (R & D) were separated electrophoretically in polyacrylamide-SDS 10% gels and transferred onto nitrocellulose membrane (GE Healthcare). After blocking the membrane with PBS-3% skimmed milk powder for 1 hour, it was incubated with 1:5 diluted periplasmic fraction in PBS-3% powdered milk for 16 hours at 4° C. The secondary antibodies used were anti c-Myc (Sigma) at a 1:1000 dilution for 2 hours at room temperature and anti-mouse peroxidase conjugate (Sigma) diluted 1:5000 for 1 hour at room temperature. Visualization was performed by incubation with ECL reagent (ECL, “Enhanced Chemiluminescence”) (GE Healthcare).

[2] = biological target: T2, recombinant human ephrin B3-Fc (R & D); assay: as above
Protocol: as §1

[3] = biological target: T3, ephrin B2-Fc (extracellular region of ephrin B2 fused to the Fc domain of human IgG, expressed in mammalian … (human)); assay: SPR (Biacore X), ephrin B2-Fc immobilised on CM5 chip, scFv at 0.4, 0.2, 0.1, 0.05 uM, Langmuir 1:1 model
T3 construct: extracellular domain; Antigen used for panning, ELISA and Biacore; also called extracellular region of the ephrin B2
T3 sequence (P52799 whole entry, the tested form may be a part): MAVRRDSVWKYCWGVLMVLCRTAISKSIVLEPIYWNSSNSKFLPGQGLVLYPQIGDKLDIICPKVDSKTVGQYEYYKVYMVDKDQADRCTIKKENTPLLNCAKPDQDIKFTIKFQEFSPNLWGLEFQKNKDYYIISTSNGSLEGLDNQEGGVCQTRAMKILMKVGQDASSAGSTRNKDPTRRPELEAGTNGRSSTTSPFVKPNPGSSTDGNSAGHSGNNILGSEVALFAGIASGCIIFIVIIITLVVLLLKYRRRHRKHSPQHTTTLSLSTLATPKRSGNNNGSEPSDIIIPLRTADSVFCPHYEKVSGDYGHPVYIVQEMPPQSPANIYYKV
Protocol: (§2) The two selected scFv, B11 and 2B1, were characterized using various techniques. First we determined the antibodies affinity constants to the ephrin B2 by means of surface plasmon resonance technique on a Biacore X, with the extracellular region of the immobilized ephrin B2 and different dilutions of purified scFv. […] Then, it was analyzed, using the same technique, the capacity of the antibodies to compete for the binding of ephrin B2 to its natural receptor Eph B4. To this end, Eph B4-Fc was immobilized on a chip and the binding to ephrin B2 was measured in the presence of different concentrations of B11 or 2B1. […] However, the 2B1 antibody has no blocking effect (FIG. 5).
(§3) To study the affinity constants of the scFv was used the technique of surface plasmon resonance with the BIAcore X equipment (BIAcore). The ephrin B2-Fc was covalently bound to CM5 chip surface (GE Healthcare) upon activation of the carboxyl groups of the dextran matrix of the chip with 0.4 M EDC (1-ethyl-3-(-dimethylaminopropyl)-carbodiimide) and 0.1 M NHS(N-hydroxysuccinimide) in a 1:1 ratio for 7 minutes at a flow rate of 10 μl/minute. The ephrin B2-Fc protein was diluted to 10 μg/ml in 10 mM sodium acetate at pH 4 and 30 μl of this solution was passed over the chip surface at a flow rate of 10 μl/min in HBS-EP buffer (10 mM HEPES pH 7.4, 150 mM NaCl, 3 mM EDTA, 0.005% surfactant P20) (GE Healthcare). […]

[4] = biological target: T3, ephrin B2-Fc (extracellular region of …); assay: SPR competition: serial dilutions of scFv mixed with 0.2 uM ephrin B2-Fc, injected over immobilised Eph B4
Protocol: A. Graph showing the percent of binding of ephrin B2 to Eph B4. Binding inhibition tests of ephrin B2 to Eph B4 in the presence of scFv anti-ephrin B2 by surface plasmon resonance. Serial dilutions of scFv B11 (•) or 2B1 (∘) were mixed with ephrin B2 and injected over Eph B4 immobilized on a chip. The relative amount of ephrin B2 bound to Eph B4 was measured immediately after injection of each sample and plotted as a function of the concentration of scFv. […] B. The scFv B11 is capable of blocking the interaction between ephrin B2 and Eph B4 receptor in a cellular assay. Analysis of tyrosines phosphorylation of the Eph B4 receptor in HUVEC cells in response to stimulation with ephrin B2 overexpressed on the surface of HEK293 cells. HUVEC and HEK293 cells overexpressing ephrin B2 were cocultured for 20 minutes in the presence or absence of anti-ephrin B2 scFv. After Eph B4 receptor immunoprecipitation, it was analyzed the total amount of this protein (lower panel) and its level of phosphorylation (upper panel) by immunoblot.
The ability of scFv to inhibit the binding of ephrin B2 to its EphB4 receptor was analyzed by surface plasmon resonance competitive binding assay. Soluble Eph B4 (R&D) was conjugated to a CM5 chip (GE Healthcare) using the same protocol described above. […]

[5] = biological target: T3, ephrin B2-Fc (extracellular region of …); assay: SPR (Biacore X), ephrin B2-Fc immobilised on CM5 chip, scFv at 30, 20, 10 and 7.5 uM, Langmuir 1:1 model
Protocol: as §2, §3

| Binder | binding result [1] | binding result [2] | Kd [3] [nM] | IC50 [4] [nM] | Kd [5] [nM] |
| --- | --- | --- | --- | --- | --- |
| scFv B11 (human anti-ephrin B2 single chain variable fragment) (scFv, Expressed from pET28b in the E. coli periplasm with c-myc and a histidine tail; also called clone B11; B11 antibody) scFv: QVQLVQSGAEVKKPGASVRLSCEASGYTFTDYYIHWVRQAPGQGLEWMGWMNPSSGNTGYAQKFQGRVTMTRNTSISTAYMELSSLRSEDTAVYYCARDITGTATGFDYWGQGTLVTVSSGGGGSGGGGSGGGGSEIVLTQSPLSLPVTLGQPASISCRSSQSLLHSNGYNYLDWYLQKPGQSPQLLIYLGSNRASGVPDRFSGSGSGTDFTLKISRVEAEDVGVYYCMQGLLSPVTFGQGTRLDIKRTVAAPTAAAEQKLISEEDLNGAALEHHHHHH | no binding | no binding | 110 | 300 |  |
| scFv 2B1 (human anti-ephrin B2 single chain variable fragment) (scFv, Expressed from pET28b in the E. coli periplasm with a histidine tail; also called clone 2B1; 2B1 antibody) scFv: QVQLVQSGGGLVQPGRSLRLSCAASGFTFDDYAMHWVRQAPGKGLEWVSGISWNSGSIGYADSVKGRFTISRDNAKNSLYLQMNSLRAEDTALYYCARGHRTSDAFDIWGQGTMVTVSSGGGGSGGGGSGGGGSQPVLTQPPSVSLAPGKTARITCGGDSIGLKSVHWYQQKPGQAPVLVMSSDSDRPSGIPDRFSGSNSGNTATLTITRVEAGDEADYYCQVWDSSSDHMVFGGGTKLTVLGQPKAAPSAAALEDYKDDDDKHHHHHH | no binding | no binding |  |  | 630 |

Reference: patent publication US20130287795A1 (FUNDACION CENTRO NACIONAL DE INVESTIGACIONES ONCOLOGICAS, published 2013)
